Drawing on publication PMC2481429, this text covers Kd for ten sequences.

The pKd is the Kd on a negative log10 scale, so that one unit is a factor of ten.

pKd: −log10 of the molar value.

The first data set deals with U2AF65 (Homo sapiens) (UniProt P26368). Description: EMSA. The following applies: Gel shift with constant 5'-32P RNA and varying U2AF65, triplicate; buffer, salt, pH and temperature not given (as previously described, ref 49). For orientation: In EMSA bound probe runs differently from free probe, usually more slowly.
Chain of U2AF65 (Homo sapiens) (P26368 whole entry, one chain of several): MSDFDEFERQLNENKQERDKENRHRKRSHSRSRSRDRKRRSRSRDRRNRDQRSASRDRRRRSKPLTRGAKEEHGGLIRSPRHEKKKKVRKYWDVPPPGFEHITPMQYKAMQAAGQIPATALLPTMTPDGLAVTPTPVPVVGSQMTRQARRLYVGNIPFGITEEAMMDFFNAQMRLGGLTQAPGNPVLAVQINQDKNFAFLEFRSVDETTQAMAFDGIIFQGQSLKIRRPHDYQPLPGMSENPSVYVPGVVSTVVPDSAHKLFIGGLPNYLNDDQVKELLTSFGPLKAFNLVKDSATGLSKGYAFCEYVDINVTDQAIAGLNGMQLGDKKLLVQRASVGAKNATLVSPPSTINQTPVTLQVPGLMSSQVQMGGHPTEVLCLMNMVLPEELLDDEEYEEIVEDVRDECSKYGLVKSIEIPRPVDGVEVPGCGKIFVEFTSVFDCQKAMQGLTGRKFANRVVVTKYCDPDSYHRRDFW
Take “CCGCCCACCCCCUCCCCUCACCGCAG [BRUNOL4 intron 9 PY tract]”: the negative-log Kd (pKd) is 5.47. Same read-out and setting: then “GCCCUGACCCCUUCCACCCGCUGCAG [LCAT intron 4 PY tract]”, with 5.72; and “UCACCACUCCUUUCUCUUUCAUUCAG [U2AF2 intron 6 PY tract]”, with 7.10; and “UAAUUCUUUUUUUCUUUCUGCCCUAG [SR140 intron 9 PY tract]”, with 7.52.

In the case of “UUCGUGCUGACCCUGUCCCGUAUUAGUCCACAGCUGCA [ADMLmut PY tract]”, the pKd was 4.80. Same read-out and setting: the value for “UUCGUGCUGACCCUGUCCCUUUUUUUUCCACAGCUGCA [ADML PY tract]” was 6.92. “CAAAGGCGUUGGUUUUGUUUCCACAG [INSR intron 10 PY tract]”: the pKd was 5.06. Still for that read-out and setting: the value for “GCCCUGACCCCUUUUUUUUGCUGCAG [LCATmut intron 4 PY tract]” was 6.92.

Still in this data set, the particulars now being: estimated (asterisk), saturation not reached; Gel shift with constant 5'-32P RNA and varying U2AF65, triplicate; buffer, salt, pH and temperature not given (as previously described, ref 49).
With “CCCUGGCUCACUCCCCUGCCCUGCAG [ITGB4 intron 31 PY tract]”, the pKd was 4.28.

The data set is the same for the next values; noted with them: estimated (asterisk); no detectable binding at concentrations tested; Gel shift with constant 5'-32P RNA and varying U2AF65, triplicate; buffer, salt, pH and temperature not given (as previously described, ref 49).
As to “CAUGUGCUCGCUGCCUGCUAAUUAAG [MBNL1 intron 6 PY tract]”, the pKd was 4.00.
